Patent US20240239878A1 (SHANGHAI QILU PHARMACEUTICAL RESEARCH AND DEVELOPMENT CENTRE, published 2024)
Residue numbers refer to the chain shown, from its start.

T1: human DLL3 on SHP-77 cells (human, UniProt Q9NYJ7 27-618)
T1 construct: also called DLL3-expressing cells (SHP-77)
T1 sequence: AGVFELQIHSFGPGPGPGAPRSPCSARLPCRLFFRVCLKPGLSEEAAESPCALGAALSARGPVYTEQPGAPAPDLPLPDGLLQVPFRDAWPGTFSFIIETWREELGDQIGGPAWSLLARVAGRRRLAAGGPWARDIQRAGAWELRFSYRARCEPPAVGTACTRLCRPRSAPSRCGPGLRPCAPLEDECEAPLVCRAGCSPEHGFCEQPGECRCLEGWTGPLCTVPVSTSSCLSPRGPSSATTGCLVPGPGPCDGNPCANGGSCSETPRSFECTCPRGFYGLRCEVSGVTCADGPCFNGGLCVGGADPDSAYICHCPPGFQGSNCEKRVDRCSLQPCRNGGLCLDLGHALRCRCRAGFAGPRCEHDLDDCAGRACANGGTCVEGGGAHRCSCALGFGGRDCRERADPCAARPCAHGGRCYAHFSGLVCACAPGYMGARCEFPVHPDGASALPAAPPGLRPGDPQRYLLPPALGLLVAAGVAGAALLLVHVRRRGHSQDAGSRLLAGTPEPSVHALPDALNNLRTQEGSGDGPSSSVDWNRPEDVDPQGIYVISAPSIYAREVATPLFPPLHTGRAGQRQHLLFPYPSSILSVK

T2: Cynomolgus monkey DLL3 on HEK293 cells (HEK293-cyno DLL3) (Cynomolgus monkey, UniProt Q9NYJ7 27-618 (human entry))
T2 chain: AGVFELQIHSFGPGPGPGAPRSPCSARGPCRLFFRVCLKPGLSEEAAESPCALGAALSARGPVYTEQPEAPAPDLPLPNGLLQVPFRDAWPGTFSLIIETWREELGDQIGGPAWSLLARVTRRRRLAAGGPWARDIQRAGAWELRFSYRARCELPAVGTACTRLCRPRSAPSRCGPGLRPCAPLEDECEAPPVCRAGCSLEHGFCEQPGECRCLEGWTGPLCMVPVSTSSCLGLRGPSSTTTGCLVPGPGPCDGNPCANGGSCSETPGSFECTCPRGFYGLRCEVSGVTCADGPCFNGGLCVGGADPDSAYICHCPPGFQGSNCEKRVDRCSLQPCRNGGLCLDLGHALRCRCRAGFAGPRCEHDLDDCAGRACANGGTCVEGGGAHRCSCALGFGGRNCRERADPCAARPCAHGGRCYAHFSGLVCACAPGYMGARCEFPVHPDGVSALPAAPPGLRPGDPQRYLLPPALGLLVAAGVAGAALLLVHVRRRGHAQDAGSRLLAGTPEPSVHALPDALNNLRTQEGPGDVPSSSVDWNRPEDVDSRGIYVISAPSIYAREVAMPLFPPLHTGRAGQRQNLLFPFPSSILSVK

B1: hDLL3-3-1 camelid-derived humanized anti-DLL3 antibody (antibody, human IgG1, V domains shown)
VH: EVQLVESGGGLVQPGGSLRLSCAASTYTISSGYMGWFRQAPGKEREGVAAIYIGGSTTLYADSVKGRFTISRDNSKNTLYLQMNSLRAEDTAVYYCAAQLRPNSAYHPLDGRKYNYWGQGTLVTVSS
B2: hDLL3-3-2 camelid-derived humanized anti-DLL3 antibody (antibody, V domains shown)
VH: B1 VH with A23K, A24S, S25P
B3: hDLL3-26 camelid-derived humanized anti-DLL3 antibody (antibody, V domains shown)
VH: EVQLVESGGGLVQPGGSLRLSCAASGDIYSSSYVGWFRQAPGKEREGVAIIYTSGDSTYYADSVKGRFTISRDNSKNTLYLQMNSLRAEDTAVYYCAARFAIDNSNYWGQGTLVTVSS
B4: hDLL3-122 camelid-derived humanized anti-DLL3 antibody (antibody, V domains shown)
VH: EVQLVESGGGLVQPGGSLRLSCAASGDTYRSYCMGWFRQAPGKEREGVADIVSDGSTSYADSVKGRFTISRDNSKNTLYLQMNSLRAEDTAVYYCAVDRGGSGGYCYTGRYDYWGQGTLVTVSS
B5: DLL3-26 camelid-derived anti-DLL3 chimeric antibody (antibody, human IgG1, V domains shown)
VH: QVQLVESGGGSVQAGGSLRLSCAASGDIYSSSYVGWFRQAPGKEREGVAIIYTSGDSTYYANSVKGRFTISQDKAKKTLYLQMNSLKPEDTAMYYCAARFAIDNSNYWGQGTQVTVSS
B6: DLL3-122 camelid-derived anti-DLL3 chimeric antibody (antibody, human IgG1, V domains shown)
VH: QVQLVESGGGSVQAGGSLRLSCTASGDTYRSYCMGWFRKAPGKEREGVADIVSDGSTSYADSVKGRFTISKDNAKNTLYLQMNSLKPEDTAMYYCAVDRGGSGGYCYTGRYDYWGQGTQVTVSS
B7: DLL3-3 camelid-derived anti-DLL3 chimeric antibody (antibody, human IgG1, V domains shown)
VH: DVQLVESGGGSVQAGGSLKLSCKSPTYTISSGYMGWFRQAPGKEREGVAAIYIGGSTTLYADSVKGRFTISADNAEKTVYLQMNTLKPEDSAMYYCAAQLRPNSAYHPLDGRKYNYWGQGTQVTVSS

What follows are binders tested against T3, human DLL4 (Sino Biological, Cat. No. 10171-H08H) (human, UniProt Q9NR61 27-529) (assay: ELISA, plate coated with human DLL4 at 1 ug/mL, OD 450nm).
T3 construct: also called family protein DLL4
Description: The antigen was washed three times with PBST, 300 μL/well. The antigen was blocked with 1% BSA (in PBST), 200 μL/well, and incubated at 37° C. for 1.5 hours.
Antibodies to be tested were diluted with 1% BSA (in PBS) at a starting concentration of 100 nM, downwards by a 10-fold gradient for 7 concentrations. The plates were washed three times with PBST, 300 μL/well. The diluted antibody was added to an ELISA plate at 100 μL/well and incubated at room temperature for 2 hours. The antibodies were washed three times with PBST, 300 μL/well. The secondary antibodies (goat anti-human IgG Fc for DLL4 (HRP), 1:20000 dilution: HRP goat anti-mouse IgG (H+L) for DLL1, 1:10000 dilution) were diluted with 1% BSA in PBST. The diluted secondary antibodies were added to the ELISA plate at 100 μL/well and incubated at room temperature for 1 hour. The plates were washed 6 times with PBST, 300 μL/well. The developing solution (TMA and TMB 1:1 mixed) was prepared. The developing solution was added to the plate, 100 μL/well, and incubated in the dark for 5 min. 50 μL of ELISA stop solution was added to the plate and shaken well.
OD450s were read on the envision and plotted on the GraphPad for EC₅₀ values.

T3 sequence (Q9NR61 27-529 limits assumed): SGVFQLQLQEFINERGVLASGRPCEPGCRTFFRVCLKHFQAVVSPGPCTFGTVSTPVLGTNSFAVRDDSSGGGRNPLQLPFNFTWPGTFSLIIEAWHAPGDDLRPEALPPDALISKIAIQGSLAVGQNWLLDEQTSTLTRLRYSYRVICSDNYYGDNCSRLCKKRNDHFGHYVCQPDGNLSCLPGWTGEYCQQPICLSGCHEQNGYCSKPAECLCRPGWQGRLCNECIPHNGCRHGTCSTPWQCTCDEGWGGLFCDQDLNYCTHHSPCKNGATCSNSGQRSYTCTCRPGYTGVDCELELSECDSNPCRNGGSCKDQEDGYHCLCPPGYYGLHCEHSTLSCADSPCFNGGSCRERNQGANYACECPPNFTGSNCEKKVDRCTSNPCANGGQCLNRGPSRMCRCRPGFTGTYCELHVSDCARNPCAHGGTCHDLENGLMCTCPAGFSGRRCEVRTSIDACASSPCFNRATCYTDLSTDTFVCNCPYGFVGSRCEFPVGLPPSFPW

| Binder | binding result |
| --- | --- |
| B1 | no binding (tested: 100 nM) |
| B2 | no binding (tested: 100 nM) |
| B3 | no binding (tested: 100 nM) |
| B4 | no binding (tested: 100 nM) |

The binders below were run against T1, human DLL3 on SHP-77 cells (assay: flow cytometry, SHP-77 cells).
Description: (§1) Monoclonal selection was performed, and the expression level of DLL3 protein in the monoclonal cells were identified by flow cytometry. The culture was expanded and stored in storage for later use. SHP-77 and HEK293-cyno DLL3 cells were cultured. The culture medium for SHP-77 cells were RPMI1640+10% FBS, and the culture medium for HEK293 cyno DLL3 cells were DMEM+10% FBS+200 μg/ml Hygromycin. The cells were cultured in a T75 cell culture flask at a 37° ° C. in a 5% CO₂ incubator. When using cells, they are washed with sterile DPBS, digested with 0.25% trypsin EDTA for about 5 minutes, and then stopped with a complete medium.
(§2) The digested cells were centrifuged at 1000 rpm for 5 min at room temperature. The supernatant was discarded and the cells were resuspended in 100 μL of 1% BSA (in PBS). The cells were counted and adjusted to a cell density of 1E6/m. The dilute cells were seeded in a 96-well round-bottom culture plate (corning 3799), and centrifuged at 1500 rpm for 5 min at 4° C. The supernatant was discarded and the cells were stored at 4° C. until use. Antibody samples to be tested were diluted with 1% BSA (in PBS) at a starting concentration of 100 nM, downwards by a 10-fold gradient for 7 concentrations. The cells were resuspended with the diluted antibody at 100 μL/well and incubated for 1 hour at 4° C. The cells were centrifuged at 1500 rpm for 5 minutes at 4° C. and the supernatant was discarded. The cells were resuspended and washed with 160 μL of 1% BSA (in PBS), centrifuged at 1500 rpm for 5 minutes at 4° C. The supernatant was discarded. The secondary antibody (goat anti human IgG Fc PE) was diluted 1:200 with 1% BSA (in PBS) according to the manufacturer's instructions and the cells were resuspended with the diluted secondary antibody. 100 μL/well, and incubated for 0.5 h at 4° C. The cells were centrifuged at 1500 rpm for 5 minutes at 4° C. and the supernatant was discarded. The cells were resuspended and washed with 160 μL of 1% BSA (in PBS), centrifuged at 1500 rpm for 5 minutes at 4° C. The supernatant was discarded. The cells were resuspended in 100 μL of 1% BSA (in PBS), and filtered across a 300 mesh gauze. The mean fluorescence intensity of the PE channels was measured by flow cytometry.

| Binder | EC50 [nM] | Top MFI [MFI] |
| --- | --- | --- |
| B5 | 0.519 | 821 |
| B6 | 0.427 | 846 |
| B7 | 0.047 | 874 |

Biological target: T2, Cynomolgus monkey DLL3 on HEK293 cells …
Assay: flow cytometry, HEK293-cyno DLL3 cells
Description: as §1, §2

| Binder | EC50 [nM] | Top MFI [MFI] |
| --- | --- | --- |
| B5 | 0.439 | 450 |
| B6 | 0.415 | 460 |
| B7 | 0.025 | 438 |
